Results on five molecules are retold here after US20210338838A1 (UNIVERSITY OF UTAH RESEARCH FOUNDATION, published 2021).

Residue numbers refer to the chain shown, from its start.

The labels stand for the following.
B1: protective CFHT-I62-Y402 (truncated complement factor H ending in SFTL) (other)
chain: EDCNELPPRRNTEILTGSWSDQTYPEGTQAIYKCRPGYRSLGNIIMVCRKGEWVALNPLRKCQKRPCGHPGDTPFGTFTLTGGNVFEYGVKAVYTCNEGYQLLGEINYRECDTDGWTNDIPICEVVKCLPVTAPENGKIVSSAMEPDREYHFGQAVRFVCNSGYKIEGDEEMHCSDDGFWSKEKPKCVEISCKSPDVINGSPISQKIIYKENERFQYKCNMGYEYSERGDAVCTESGWRPLPSCEEKSCDNPYIPNGDYSPLRIKHRTGDEITYQCRNGFYPATRGNTAKCTSTGWIPAPRCTLKPCDYPDIKHGGLYHENMRRPYFPVAVGKYYSYYCDEHFETPSGSYWDHIHCTQDGWSPAVPCLRKCYFPYLENGYNQNYGRKFVQGKSIDVACHPGYALPKAQTTVTCMENGWSPTPRCIRVSFTL
notes: In the Western blot it was expressed in RPE1 cells from pCTM134 and from eCFH/T v4.1; also called CFHT-Protection; native protective CFHT
B2: eCFHT-SK (engineered truncated CFH, I62-Y402, ending in SKSFTL) (other)
chain: EDCNELPPRRNTEILTGSWSDQTYPEGTQAIYKCRPGYRSLGNIIMVCRKGEWVALNPLRKCQKRPCGHPGDTPFGTFTLTGGNVFEYGVKAVYTCNEGYQLLGEINYRECDTDGWTNDIPICEVVKCLPVTAPENGKIVSSAMEPDREYHFGQAVRFVCNSGYKIEGDEEMHCSDDGFWSKEKPKCVEISCKSPDVINGSPISQKIIYKENERFQYKCNMGYEYSERGDAVCTESGWRPLPSCEEKSCDNPYIPNGDYSPLRIKHRTGDEITYQCRNGFYPATRGNTAKCTSTGWIPAPRCTLKPCDYPDIKHGGLYHENMRRPYFPVAVGKYYSYYCDEHFETPSGSYWDHIHCTQDGWSPAVPCLRKCYFPYLENGYNQNYGRKFVQGKSIDVACHPGYALPKAQTTVTCMENGWSPTPRCIRVSKSFTL
notes: Non-natural variant of human CFHT with SK inserted before the C-terminal SFTL; In the Western blot it was expressed from eCFH/T v4.2 in RPE1 cells; also called protective eCFHT-SK; truncated product of eCFH/T v4.2
B3: monomeric C-reactive protein (CRP) (other, UniProt P02741 19-224, looked up)
chain: QTDMSRKAFVFPKESDTSYVSLKAPLTKPLKAFTVCLHFYTELSSTRGYSIFSYATKRQDNEILIFWSKDIGYSFTVGGSEILFEVPEVTVAPVHICTSWESASGIVEFWVDGKPRVRKSLKKGYTVGAEASIILGQEQDSFGGNFEGSQSLVGDIGNVNMWDFVLSPDEINTIYLGGPFSPNVLNWRALKYEVQGEVFTKPQLWP
B4: eCFHT-SE (engineered truncated CFH, I62-Y402, ending in SESFTL) (other)
chain: B2 chain with K429E
notes: The chain is built from the first 445 residues shared by CFH and CFHT, less the 18-residue signal peptide, plus the printed C-terminal SESFTL; His-tagged and purified from HEK293 cells; also called protective eCFHT-SE; truncated product of eCFH/T v4.3
B5: protective CFH-I62-Y402-E936 (full-length complement factor H) (other)
chain: EDCNELPPRRNTEILTGSWSDQTYPEGTQAIYKCRPGYRSLGNIIMVCRKGEWVALNPLRKCQKRPCGHPGDTPFGTFTLTGGNVFEYGVKAVYTCNEGYQLLGEINYRECDTDGWTNDIPICEVVKCLPVTAPENGKIVSSAMEPDREYHFGQAVRFVCNSGYKIEGDEEMHCSDDGFWSKEKPKCVEISCKSPDVINGSPISQKIIYKENERFQYKCNMGYEYSERGDAVCTESGWRPLPSCEEKSCDNPYIPNGDYSPLRIKHRTGDEITYQCRNGFYPATRGNTAKCTSTGWIPAPRCTLKPCDYPDIKHGGLYHENMRRPYFPVAVGKYYSYYCDEHFETPSGSYWDHIHCTQDGWSPAVPCLRKCYFPYLENGYNQNYGRKFVQGKSIDVACHPGYALPKAQTTVTCMENGWSPTPRCIRVKTCSKSSIDIENGFISESQYTYALKEKAKYQCKLGYVTADGETSGSITCGKDGWSAQPTCIKSCDIPVFMNARTKNDFTWFKLNDTLDYECHDGYESNTGSTTGSIVCGYNGWSDLPICYERECELPKIDVHLVPDRKKDQYKVGEVLKFSCKPGFTIVGPNSVQCYHFGLSPDLPICKEQVQSCGPPPELLNGNVKEKTKEEYGHSEVVEYYCNPRFLMKGPNKIQCVDGEWTTLPVCIVEESTCGDIPELEHGWAQLSSPPYYYGDSVEFNCSESFTMIGHRSITCIHGVWTQLPQCVAIDKLKKCKSSNLIILEEHLKNKKEFDHNSNIRYRCRGKEGWIHTVCINGRWDPEVNCSMAQIQLCPPPPQIPNSHNMTTTLNYRDGEKVSVLCQENYLIQEGEEITCKDGRWQSIPLCVEKIPCSQPPQIEHGTINSSRSSQESYAHGTKLSYTCEGGFRISEENETTCYMGKWSSPPQCEGLPCKSPPEISHGVVAHMSDSYQYGEEVTYKCFEGFGIDGPAIAKCLGEKWSHPPSCIKTDCLSLPSFENAIPMGEKKDVYKAGEQVTYTCATYYKMDGASNVTCINSRWTGRPTCRDTSCVNPPTVQNAYIVSRQMSKYPSGERVRYQCRSPYEMFGDEEVMCLNGNWTEPPQCKDSTGKCGPPPPIDNGDITSFPLSVYAPASSVEYQCQNLYQLEGNKRITCRNGQWSEPPKCLHPCVISREIMENYNIALRWTAKQKLYSRTGESVEFVCKRGYRLSSRSHTLRTTCWDGKLEYPTCAKR
notes: In the Western blot it was expressed in RPE1 cells from plasmid pCTM133; also called CFH-Protection

Test [1] concerns the target B3. The test can be described thus: relative CRP-binding assay, percent of CFH-Risk, detection antibody AbCam OX-24 (#Ab112197).
Test [2] concerns the target B3. The test can be described thus: plate-based CRP binding assay, against protective CFH.
For test [3], the target named is T1, MDA-modified LDL particles.
T1 construct: Not a plain protein; also called MDA-LDL; MDA adducts
The test can be described thus: relative MDA-binding assay, percent of CFH-Risk, detection antibody AbCam OX-24 (#Ab112197).

The target in test [4] is B3. The test can be described thus: relative CRP-binding assay, detection antibody AbCam OX-24 (#Ab112197).
Test [5] addresses T1, MDA-modified LDL particles. The test can be described thus: rank of binding affinity among six proteins, plate-based binding assays.
The target in test [6] is B3. Described as above.
For test [7], the target named is T1, MDA-modified LDL particles. In words: plate-based binding assay, His-tagged recombinant protein from HEK293 cells.
The target in test [8] is T1, MDA-modified LDL particles. The test can be described thus: relative MDA-binding assay, detection antibody AbCam OX-24 (#Ab112197).
Test [9] concerns the target B2. The test can be described thus: plate-based binding assay, His-tagged recombinant protein from HEK293 cells.
Test [10] has as its target B5. Described as above.
The target in test [11] is B4. Described as above.
Test [12] deals with B1. The test is described as above.

B1: the results for the “% FH-Risk” value in [1] and in test [3] were 5900% and 107%, respectively. The “fold better binding affinity than CFH” value in [2] is around 10 fold. Also, the “Binding Potential” value in test [4] was 87; in [8], 32. Also, the “Binding Affinity Rank (1 best to 6 worst)” value (“Binding Affinity Rank” for short) in test [5] is 1 rank; in test [6] it was 2 rank. Besides, the Kd in test [7] turned out to be 219 nM.

Turning to B2, the “Binding Affinity Rank” value in [5] came to 3 rank; in test [6] it was 1 rank. Further, in test [7], the Kd was 290 nM.

For B3, the Kd in test [9] came to 13.7 nM; in test [10], 127 nM; in test [11] it was 25.3 nM; in test [12] it was 14.3 nM.

As for B4, the results for the “Binding Affinity Rank” value in [5] and in test [6] were 4 rank and 3 rank, respectively. In [7], the equilibrium dissociation constant (Kd) stood at 305 nM.

In the case of B5, the “% FH-Risk” value in test [1] came out at 656%; in [3], 251%. In addition, the results for the “Binding Potential” value in test [4] and in [8] were 10 and 75, respectively. In addition, the “Binding Affinity Rank” value in test [5] was 2 rank; in test [6], 4 rank. Further, the Kd in [7] turned out to be 222 nM.

In general, Kd refers to the free concentration of one partner at which half of the binding sites on the other are occupied at equilibrium, for simple one-to-one binding.
